Measured values published in the supplement of paper PMC7877785.
± gives the uncertainty stated by the source.

Experiment: self-splicing fitness, log relative to wild type (ln ratio); higher = more splicing; Tetrahymena group I intron in knt gene, E. coli kanamycin selection, DiMSum; sequences stand for … in CUCUCU…GGAGGGAAAAGUUAUCAGGCAUGCACCUGGUAGCUAGUCUUUAAACCAAUAGAUUGCAUCGGUUUAAAAGGCAAGACCGUCAAAUUGCGGGAAAGGGGUCAACAGCCGUUCAGUACCAAGUCUCAGGGGAAACUUUGAGAUGGCCUUGCAAAGGGUAUGGUAAUAAGCUGACGGACAUGGUCCUAACCACGCAGCCAAGUCCUAAGUCAACAGAUCUUCUGUUGAUAUGGAUGCAGUUCACAGACUAAAUGUCGGUCGGGGAAGAUGUAUUCUUCUCAUAAGAUAUAGUCGGACCUCUCCUUAAUGGGAGCUAGCGGAUGAAGUGAUGCAACACUGGAGCCGCUGGGAACUAAUUUGUAUGCGAAAGUAUAUUGAUUAGUUUUGGAGUACUCGUGGUCG
Procedure, shortened: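 Six replicate transformations of E. coli BL21(DE3) with a pET-22b(+) library were grown overnight at 37°C or 30°C. The library randomised all eight P1ex-region intron nucleotides, the intron lying in the knt kanamycin-resistance gene, and plates were LB agar with or without 25 μg/mL kanamycin plus 100 μg/mL carbenicillin, 50 μM IPTG and 0.2% rhamnose. Pooled colonies were amplicon-sequenced on an Illumina HiSeq 2500, and fitness is the DiMSum error-weighted combination of wild-type-normalised replicate fold changes, kanamycin versus none.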

Row | Sequence | self-splicing fitness (ln) (30 °C) | self-splicing fitness (ln) (37 °C)
1 | AGCCAGCAAUAUUACGGACC | -0.609 ± 0.095 | -0.386 ± 0.11
2 | AUUCAGCAAUAUUACGACAU | 0.206 ± 0.012 | 0.365 ± 0.032
3 | CUACAGCAAUAUUACGCGUG | -1.83 ± 0.076 | -1.03 ± 0.089
4 | CAGAAGCAAUAUUACGGCGA | -1.43 ± 0.15 | -1.5 ± 0.18
5 | UGAUAGCAAUAUUACGGUAA |  | -1.62 ± 0.35
6 | CAAAAGCAAUAUUACGUAAU | -3.57 ± 0.15 | -3.04 ± 0.18
7 | UAGGAGCAAUAUUACGCUUU | -2.54 ± 0.32 | -1.66 ± 0.29
8 | AUUUAGCAAUAUUACGCUUA | -1.99 ± 0.17 | -0.321 ± 0.19
9 | GAGCAGCAAUAUUACGGAAU | -3.37 ± 0.22 | -2.08 ± 0.2
10 | UAUCAGCAAUAUUACGAAUU | -0.95 ± 0.076 | 0.113 ± 0.09
11 | UCAAAGCAAUAUUACGCAGA | -3.13 ± 0.21 | -2.64 ± 0.16
12 | AACCAGCAAUAUUACGACAC | -1.07 ± 0.08 | -0.426 ± 0.1
13 | AAUAAGCAAUAUUACGUAUC | -1.6 ± 0.087 | -1.36 ± 0.11
14 | CAGCAGCAAUAUUACGGUUC | -2.92 ± 0.26 | -1.5 ± 0.17
15 | UGUUAGCAAUAUUACGUACG | -0.624 ± 0.17 | 0.229 ± 0.22
16 | AGGAAGCAAUAUUACGCCAG | -2.89 ± 0.18 | -1.81 ± 0.22
17 | GUUUAGCAAUAUUACGAAUG | -1.2 ± 0.18 | -0.733 ± 0.18
18 | AGACAGCAAUAUUACGAGAU | -2.88 ± 0.1 | -2.85 ± 0.18
19 | UUUGAGCAAUAUUACGCAGA |  | -1.51 ± 0.32
20 | CCAAAGCAAUAUUACGCUGG | -4.28 ± 0.23 | -2.46 ± 0.17
21 | CGAAAGCAAUAUUACGUAUC | -3.76 ± 0.2 | -3.21 ± 0.23
22 | UAGCAGCAAUAUUACGGUGG | -1.85 ± 0.089 | -1.12 ± 0.1
23 | UCUCAGCAAUAUUACGGCGU | -0.533 ± 0.087 | -0.636 ± 0.12
24 | ACGUAGCAAUAUUACGUGAA | -3.92 ± 0.23 | -1.82 ± 0.17
25 | ACGGAGCAAUAUUACGUCCG | -3.13 ± 0.37 | -2.36 ± 0.42
26 | UUGGAGCAAUAUUACGUAUA | -2.08 ± 0.44 | 
27 | AAAAAGCAAUAUUACGCCGC | -2.19 ± 0.43 | -2.01 ± 0.33

Row | Sequence | self-splicing fitness (ln) (30 °C) | self-splicing fitness (ln) (37 °C)
28 | CAUGAGCAAUAUUACGGUAU | -4 ± 0.39 | -3.54 ± 0.33
29 | AGACAGCAAUAUUACGCACC | -0.553 ± 0.13 | 0.279 ± 0.17
30 | UAUUAGCAAUAUUACGUCGG | -1.21 ± 0.12 | -0.795 ± 0.15
31 | ACAGAGCAAUAUUACGAGCG | -3.08 ± 0.14 | -2.51 ± 0.19
32 | CAGUAGCAAUAUUACGAGGU |  | -2.88 ± 0.34
33 | ACACAGCAAUAUUACGGACG | -0.635 ± 0.057 | 0.0496 ± 0.073
34 | GGUUAGCAAUAUUACGUCAC |  | -1.82 ± 0.23
35 | GUCUAGCAAUAUUACGGCCG |  | -1.78 ± 0.35
36 | GGAGAGCAAUAUUACGAAAU |  | -2.48 ± 0.48
37 | AAUUAGCAAUAUUACGUACG | -1.75 ± 0.11 | -0.862 ± 0.12
38 | ACGGAGCAAUAUUACGAUUC | -2.11 ± 0.32 | 
39 | GAAGAGCAAUAUUACGUCGC | -2.58 ± 0.28 | 0.595 ± 0.21
40 | CACGAGCAAUAUUACGACAC | -2.84 ± 0.23 | -2.18 ± 0.3
41 | GAUAAGCAAUAUUACGACAG | -3.46 ± 0.24 | -1.89 ± 0.23
42 | UUGUAGCAAUAUUACGUGUC | -3.17 ± 0.15 | 
43 | GCAGAGCAAUAUUACGCGGG | -3.58 ± 0.39 | -2.24 ± 0.28
44 | AAAUAGCAAUAUUACGUAUC | -3.12 ± 0.28 | -1.51 ± 0.19
45 | GUAAAGCAAUAUUACGGGUU | -1.72 ± 0.13 | -1.86 ± 0.18
46 | UGCAAGCAAUAUUACGUUGC | -3.3 ± 0.31 | -3.31 ± 0.39
47 | AAGUAGCAAUAUUACGCGGG | -2.89 ± 0.19 | -2.84 ± 0.2
48 | AGAGAGCAAUAUUACGUAGC | -4.09 ± 0.3 | -3.62 ± 0.46
49 | CUGGAGCAAUAUUACGUGGG | -3.7 ± 0.2 | -2.52 ± 0.26
50 | CACUAGCAAUAUUACGGCCG | 0.0261 ± 0.086 | -0.0313 ± 0.12
51 | CAACAGCAAUAUUACGUGAC | -4.28 ± 0.22 | -2.23 ± 0.15
52 | GAAGAGCAAUAUUACGGUGA | -2.47 ± 0.16 | -1.02 ± 0.096
53 | GGGCAGCAAUAUUACGAAUA |  | 0.108 ± 0.17
54 | CGGCAGCAAUAUUACGACGA | -1 ± 0.11 | -1.41 ± 0.14

Row | Sequence | self-splicing fitness (ln) (30 °C) | self-splicing fitness (ln) (37 °C)
55 | UAACAGCAAUAUUACGCCGA | -1.95 ± 0.11 | -0.415 ± 0.089
56 | GGUGAGCAAUAUUACGGUGG | -3.06 ± 0.26 | -2.88 ± 0.32
57 | UGUGAGCAAUAUUACGAUCU | -1.57 ± 0.15 | -0.175 ± 0.14
58 | UAAUAGCAAUAUUACGCACC | -2.04 ± 0.21 | -0.918 ± 0.24
59 | UUGCAGCAAUAUUACGUGGG | -3.24 ± 0.12 | -2.8 ± 0.17
60 | AGGCAGCAAUAUUACGUAAG | -1.77 ± 0.13 | -0.486 ± 0.17
61 | GCUCAGCAAUAUUACGUGUA | -0.241 ± 0.058 | -0.00875 ± 0.067
62 | CAGAAGCAAUAUUACGCAAG | -2.45 ± 0.098 | -1.21 ± 0.092
63 | GUUAAGCAAUAUUACGUCAU | -1.5 ± 0.1 | -0.179 ± 0.12
64 | CCGUAGCAAUAUUACGCAAC | -4.04 ± 0.26 | -2.13 ± 0.21
65 | GGGCAGCAAUAUUACGACGA | -0.804 ± 0.11 | -0.442 ± 0.12
66 | AGCAAGCAAUAUUACGUACG | -1.99 ± 0.13 | -0.695 ± 0.11
67 | GGGAAGCAAUAUUACGAUCC | -2.12 ± 0.22 | -1.11 ± 0.35
68 | ACGCAGCAAUAUUACGGCCA | -0.646 ± 0.092 | 0.161 ± 0.12
69 | CAACAGCAAUAUUACGUUAC | -3.99 ± 0.21 | -2.44 ± 0.14
70 | CAUUAGCAAUAUUACGAUAG | -0.405 ± 0.094 | -0.688 ± 0.11
71 | GAGAAGCAAUAUUACGUCAA | -1.82 ± 0.11 | -0.98 ± 0.11
72 | CUUUAGCAAUAUUACGUUAC | -3.92 ± 0.34 | -1.74 ± 0.29
73 | UACAAGCAAUAUUACGAUUC | -3.23 ± 0.13 | -2.04 ± 0.16
74 | AAGGAGCAAUAUUACGAUUG | -3.8 ± 0.32 | -0.948 ± 0.15
75 | ACUGAGCAAUAUUACGGCCC | -1.95 ± 0.3 | -0.993 ± 0.26
76 | CGCCAGCAAUAUUACGAAUG | -0.783 ± 0.058 | 0.0658 ± 0.066
77 | GCAUAGCAAUAUUACGCGGG | -3.23 ± 0.14 | -0.875 ± 0.11
78 | CAAGAGCAAUAUUACGCCUU | -3.52 ± 0.32 | -2.57 ± 0.41
79 | GCCAAGCAAUAUUACGUGCA | -1.63 ± 0.087 | -0.541 ± 0.09
